{"source": "paper PMC11150526", "about": "“Pseudomonas aeruginosa gene PA4880 encodes a Dps-like protein with a Dps fold, bacterioferritin-type ferroxidase centers, and endonuclease activity” (Frontiers in Molecular Biosciences, 2024)", "proteins": {"B1": {"name": "Pseudomonas aeruginosa Dps-like protein (product of gene PA4880) (natural protein, Pseudomonas aeruginosa PAO1, UniProt Q9HUT3 1-177, looked up)", "chain": "MTTVQLTDVQTLRDRARKNIQEGAVTEGYSADRQTVLRLLNEALATELVCFLRYKRHYFMATGLKASIAAAEFLEHANQEMQHADQLAERIMQLGGEPDFNPRGLEERSHAEYVEGKTLKDMVTENLIAERIAIDSYREIITYLGNDDPTTRRIFEEILAQEEEHADDMADILDDLA", "notes": "Product of gene PA4880 of P. aeruginosa PAO1 (annotated as probable bacterioferritin); The gene was synthesised with silent, codon-optimising mutations and cloned NdeI/BamHI into pET11a; The structures number residues from Met1; No tag is mentioned; As isolated it carries di-iron ferroxidase centres (8-10 Fe per 12-mer); also called Pa DpsL; PaDpsL; source: E. coli BL21-Gold (DE3), pET11a, …"}}, "key": {"[1]": {"target": "the molecule itself", "assay": "crystal structure; Pa DpsL-dimer (also called Pa DpsL-monomer); protein purified without MgSO4; crystals from 8% PEG 6,000, 100 mM MES pH 6.0, 100 mM MgCl2; 1.3 A; one molecule in the asymmetric unit, dimer by crystallographic symmetry (PISA)"}, "[2]": {"target": "the molecule itself", "assay": "SEC; calibrated Superdex 200 Increase 10/300 GL; 50 mM Tris pH 7.5, 1 mM MgSO4; also run after titration with Fe2+ (0 h and 24 h), and after MgSO4 was added back to disassembled protein (only partial reassembly)"}}, "data": [{"protein": "B1", "values": [{"measurement": "stoichiometry N", "setting": "[1]", "result": 2}, {"measurement": "stoichiometry N", "setting": "[2]", "result": 12}]}]}
